This is an account of results in US7208293.

Assay [1] deals with trypsin (UniProt P00760). As to the kind of experiment: elution from trypsin beads.
The target in assay [2] is human neutrophil elastase (human) (UniProt P08246). As to the kind of experiment: acid elution from HNE beads.
Assay [3] concerns the target trypsin (UniProt P00760). As to the kind of experiment: acid elution from trypsin beads.
The target in assay [4] is anhydro-trypsin (UniProt P00760). As to the kind of experiment: elution from anhydrotrypsin beads.
Sequence of anhydro-trypsin (P00760 24-246): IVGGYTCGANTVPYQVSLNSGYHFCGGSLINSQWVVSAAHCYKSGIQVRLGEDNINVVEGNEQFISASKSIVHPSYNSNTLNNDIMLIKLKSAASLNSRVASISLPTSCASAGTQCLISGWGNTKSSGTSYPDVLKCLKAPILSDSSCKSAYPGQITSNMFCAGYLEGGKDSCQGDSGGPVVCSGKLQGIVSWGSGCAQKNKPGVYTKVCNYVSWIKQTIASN
Assay [5] has the same target. Kind of assay: loss of titer on anhydrotrypsin beads.
Assay [6] has the same target. Kind of assay: acid elution from anhydrotrypsin beads, experiment 1.
Assay [7] shares this target. As to the kind of experiment: acid elution from anhydrotrypsin beads, experiment 2.
Assay [8] has as its target human neutrophil elastase (human) (UniProt P08246). Kind of assay: HNE beads, pH 2.0 elution.
Assay [9] shares this target. As to the kind of experiment: HNE beads, pH 2.5 elution.
Assay [10] has the same target. Kind of assay: HNE beads, pH 3.0 elution.
Assay [11] shares this target. Kind of assay: HNE beads, pH 3.5 elution.
For assay [12] the target is unchanged. Kind of assay: HNE beads, pH 4.0 elution.
Assay [13] shares this target. As to the kind of experiment: HNE beads, pH 4.5 elution.
Assay [14] shares this target. As to the kind of experiment: HNE beads, pH 5.0 elution.
Assay [15] shares this target. As to the kind of experiment: HNE beads, pH 5.5 elution.
The target is the same in assay [16]. Kind of assay: HNE beads, pH 6.0 elution.
Assay [17] shares this target. As to the kind of experiment: HNE beads, pH 7.0 elution.
The target of assay [18] is human Cathepsin G (human) (UniProt P08311). Kind of assay: Cat-G beads, pH 2.0 elution.
Sequence of human Cathepsin G (human) (P08311 21-244 limits assumed): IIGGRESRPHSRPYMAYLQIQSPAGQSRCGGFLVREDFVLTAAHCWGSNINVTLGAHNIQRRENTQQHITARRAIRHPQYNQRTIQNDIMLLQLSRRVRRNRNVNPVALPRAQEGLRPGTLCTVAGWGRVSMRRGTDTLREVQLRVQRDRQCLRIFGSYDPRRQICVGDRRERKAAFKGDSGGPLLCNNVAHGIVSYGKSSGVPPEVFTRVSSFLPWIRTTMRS
For assay [19] the target is unchanged. Kind of assay: Cat-G beads, pH 2.5 elution.
Assay [20] has the same target. As to the kind of experiment: Cat-G beads, pH 3.0 elution.
Assay [21] has the same target. Kind of assay: Cat-G beads, pH 3.5 elution.
The target is the same in assay [22]. As to the kind of experiment: Cat-G beads, pH 4.0 elution.
The target is the same in assay [23]. As to the kind of experiment: Cat-G beads, pH 4.5 elution.
The target is the same in assay [24]. Kind of assay: Cat-G beads, pH 5.0 elution.
Assay [25] shares this target. Kind of assay: Cat-G beads, pH 5.5 elution.
Assay [26] has the same target. Kind of assay: Cat-G beads, pH 6.0 elution.
The target is the same in assay [27]. Kind of assay: Cat-G beads, pH 7.0 elution.
The target in assay [28] is human neutrophil elastase (human) (UniProt P08246). Kind of assay: HNE beads, final TBS-TWEEN wash.
In assay [29] the target is human Cathepsin G (human) (UniProt P08311). As to the kind of experiment: Cat-G beads, final TBS-TWEEN wash.
The target in assay [30] is human neutrophil elastase (human) (UniProt P08246). As to the kind of experiment: HNE beads, SUM of all pH elution fractions.
Assay [31] has the same target. Kind of assay: HNE beads, abbreviated fractionation, WASH.
For assay [32], the target named is human Cathepsin G (human) (UniProt P08311). Kind of assay: Cat-G beads, SUM of all pH elution fractions.
In assay [33] the target is human neutrophil elastase (human) (UniProt P08246). Kind of assay: HNE beads, abbreviated fractionation, pH 2.0.
Assay [34] has the same target. As to the kind of experiment: HNE beads, abbreviated fractionation, pH 3.5.
Assay [35] shares this target. As to the kind of experiment: HNE beads, abbreviated fractionation, pH 7.0.
Assay [36] shares this target. As to the kind of experiment: HNE beads, abbreviated fractionation, SUM of pH fractions.
Assay [37] concerns the target trypsin (UniProt P00760). Kind of assay: immobilized trypsin, CBS buffer pH 6.5, pH 2.2 elution.
For assay [38], the target named is trypsin (UniProt P00760). Kind of assay: immobilized trypsin, TBS buffer pH 7.5, pH 2.2 elution.
Assay [39] concerns the target M13 MB48 phage (BPTI:VIII fusion display phage) (bovine BPTI fused to phage M13 gene VIII protein). As to the kind of experiment: strain M13MB48 batch 4; NRS IgG added.
The target is the same in assay [40]. As to the kind of experiment: strain M13MB48 batch 5; NRS IgG added.
In assay [41] the target is M13 mp18 phage. Kind of assay: strain M13MP18; NRS IgG and protein A-agarose.
For assay [42], the target named is M13 mp18 phage. As to the kind of experiment: strain M13MP18; IgG from normal rabbit serum added.
Assay [43] deals with M13 MB48 phage (BPTI:VIII fusion display phage) (bovine BPTI fused to phage M13 gene VIII protein). Kind of assay: strain M13MB48 batch 4; NRS IgG and protein A-agarose.
Assay [44] shares this target. As to the kind of experiment: strain M13MB48 batch 5; NRS IgG and protein A-agarose.
For assay [45] the target is unchanged. Kind of assay: strain M13MB48 batch 5; protein A-agarose alone.

Sequence of human neutrophil elastase (human) (P08246 30-247 limits assumed): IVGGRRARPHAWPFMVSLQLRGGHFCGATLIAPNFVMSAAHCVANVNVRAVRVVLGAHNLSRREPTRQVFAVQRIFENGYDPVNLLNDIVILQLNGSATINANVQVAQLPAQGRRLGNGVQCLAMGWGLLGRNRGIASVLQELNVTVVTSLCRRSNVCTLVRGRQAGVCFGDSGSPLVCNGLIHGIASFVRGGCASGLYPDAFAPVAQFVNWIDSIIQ
Sequence of trypsin (P00760 24-246): as the sequence (P00760 24-246) above

Regarding M13 mp18 phage, the eluted phage, percentage of input came out at 0.00023% with trypsin [1]; 0.0003% in assay [2]; 0.0005% with trypsin [3]; 0.1% with anhydro-trypsin [4]; 0.2% with anhydro-trypsin [6]; 0.3% in the assay with anhydro-trypsin [7]. For the same substance, the relative binding (to M13MP18) (with trypsin [1]; in assay [2]; with trypsin [3]; with anhydro-trypsin [4]) was 1 throughout. This substance gave a pfu post incubation, percentage of input in the assay with anhydro-trypsin [5] of 121%. Also, the relative to M13MP18 in the assay with anhydro-trypsin [6] amounted to 1. The relative to M13mp18 with anhydro-trypsin [7] was 1.

As to “MA-ITI phage (ITI-D1-III fusion display phage) (from UniProt P02760 22-77)”, the fraction of input in [8] is 5e-08; in [9], 4.1e-08; in assay [10] it was 8.5e-08; in assay [11], 1.4e-07; in assay [12] it was 2.1e-07; in assay [13] it was 3.5e-07. Besides, the fraction of input was 9.1e-07 in assay [14]; 4.7e-06 in assay [15]; 2.9e-06 in assay [16]; 4.7e-06 in assay [17]; 7e-07 in [18]; 5.9e-07 in assay [19]. The fraction of input in assay [20] worked out at 7.8e-07; in assay [21] it was 9.6e-07; in [22], 9.6e-07; in assay [23] it was 1.5e-06; in assay [24], 2.4e-06; in [25], 2.6e-06. Moreover, the fraction of input in assay [26] amounted to 5e-06; in assay [27], 1.3e-05; in [28] it was 5.3e-06; in [29], 1.5e-05; in assay [30] it was 2e-05; in assay [31], 1e-05. The fraction of input in [32] turned out to be 3e-05; in assay [33] it was 1e-06; in assay [34] it was 3e-06; in assay [35], 1e-05; in assay [36], 1.4e-05. In addition, the total pfu in sample in [8] amounted to 17000 pfu; in [9], 14000 pfu; in assay [10] it was 29000 pfu; in assay [11], 49000 pfu; in assay [12] it was 72000 pfu; in [13], 120000 pfu. The total pfu in sample was determined as 310000 pfu in [14]; 1.6e+06 pfu in assay [15]; 1e+06 pfu in assay [16]; 1.6e+06 pfu in assay [17]; 320000 pfu in assay [18]; 270000 pfu in [19]. Besides, the total pfu in sample in assay [20] came to 360000 pfu; in assay [21], 440000 pfu; in assay [22], 440000 pfu; in [23], 670000 pfu; in assay [24] it was 1.1e+06 pfu; in assay [25], 1.2e+06 pfu. The total pfu in sample in [26] was 2.3e+06 pfu; in [27], 6.1e+06 pfu; in assay [28], 1.8e+06 pfu; in [29], 7.1e+06 pfu; in assay [30], 5.7e+06 pfu; in [32], 1.4e+07 pfu.

For the substance MK phage, the percent of input phage recovered with trypsin [37] was 0.00028%; with trypsin [38] it was 0.00034%.

Take “normal rabbit serum / IgG purified from normal rabbit serum (antibody)”: the percentage of input phage (pfu) remaining in [39] is 125%; in [40] it was 105%; with M13 mp18 phage [41], 88%; with M13 mp18 phage [42], 104%; in assay [43], 121%; in assay [44], 110%.

Turning to protein A (agarose beads), in assay [45], the percentage of input phage (pfu) remaining stood at 58%.
